Experimental data published in CN116253795A (SUN YAT SEN UNIV CANCER CENTER SUN YAT SEN UNIV AFFILIATED …, dated 2023).

Tests used:
[1] = target: T1, gHgL胞外域全长蛋白 (recombinant single-chain EBV gL-linker-gH ectodomain with 6xHis, SEQ ID NO.12) (Epstein-Barr virus, M81 strain …); test: ELISA, gHgL protein coated at 2 ug/mL, antibody titrated
T1 construct: not shown: 6xHis tag

[2] = target: T2, P9肽 (biotinylated 20-mer peptide of gL, aa 104-123) (Epstein-Barr virus, M81 strain, N-terminal biotin); test: ELISA, biotinylated peptide on streptavidin plate, antibody 1 ug/mL
T2 peptide: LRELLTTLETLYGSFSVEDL

[3] = target: T1, gHgL胞外域全长蛋白 (recombinant single-chain …); test: SPR, Biacore 8K, antibody captured on Protein A chip, gHgL as analyte 3.125-200 nM

B1: 兔源单克隆抗体10E4 (rabbit monoclonal antibody 10E4) (antibody, V domains shown)
VH: QQVKESGGRLVTPGTPLTLTCTASGFSLSTYWMSWVRQAPGKGLEYIGVIGGSGSTYYASWAKGRFTISKTSTTVDLKITSPTTEDTATYFCARDSGAGVRFRFWGPGTLVTVSS
VL: DLVMTQTPASVEAGVGGTVTINCQASENIGSRLAWYQQKPGQPPKLLIYRASTLESGVPSRFKGSGSGTEFTLTISDLECADAATYYCQCTYGVSITINYGNDFGGGTEVVVKG
notes: also called 单抗10E4
- EC50 [1]: 0.0335 µg/mL
- binding result [2]: binds
- Kd [3]: 3.53 nM
